Data reported in paper PMC7705443 (2020).

Target: SARS-CoV-2 RBD (residues 319-541), C-terminal his-tag (SARS-CoV-2, UniProt P0DTC2 319-541)
Test: SPR

B1: P17 antibody (full-length IgG1) (antibody, V domains shown)
VH: QQLVESGGGVVQPGRSLRLSCAASGFTFSSYAMHWVRQAPGKGLEWVAVISYDGSNKYYADSVKGRFTISRDNSKNTLYLQMNSLRAEDTAVYYCARHATLMNNKDIWGQGTLVTVSS
VL: not shown
Q: With B1 as the binder, how does the koff read?
A: 0.000221 s⁻¹
